Literature values as cited in PMC7982615, “Phase 1 study of telisotuzumab vedotin in Japanese patients with advanced solid tumors” (Cancer Medicine, 2021).

System: advanced solid tumors
Details: cited from earlier work

In the case of “Teliso‐v: antibody‐drug conjugate: anti–c‐Met humanized monoclonal antibody ABT‐700 coupled to monomethyl auristatin E through a valine‐citrulline linker, drug:antibody ratio approximately three”, the Tolerability (2.7 mg/kg Q3 W) is given as “well tolerated”, the “Patients with PR” value (c‐Met‐positive NSCLC) is given as “three of 14” and the “Recommended phase 2 dose (RP2D)” value (every 3 weeks, preceding phase 1 study outside of Japan) is given as 2.7 mg/kg. For the same substance, the “Frequency of corneal epithelium disorder” value (non‐Japanese patients, nine of 116, teliso‐v monotherapy, ref data on file) was 7.8%.
